Assay results from patent US20240383982A1 (Genmab, published 2024).

Assays:
[1] = biological target: T1, human B7H4, full length, on cells (human, UniProt Q7Z7D3 25-282); experiment: cell-based or functional assay
T1 sequence: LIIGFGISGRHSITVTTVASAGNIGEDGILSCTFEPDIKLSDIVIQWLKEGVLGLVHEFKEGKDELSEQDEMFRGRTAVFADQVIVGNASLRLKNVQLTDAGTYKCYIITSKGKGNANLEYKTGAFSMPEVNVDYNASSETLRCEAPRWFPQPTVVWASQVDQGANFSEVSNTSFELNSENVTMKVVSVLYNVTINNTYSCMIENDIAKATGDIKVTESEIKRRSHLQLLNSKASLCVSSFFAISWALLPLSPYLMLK

[2] = biological target: T1, human B7H4, full length, on cells; experiment: flow cytometry on SK-BR3 tumor cells [panel SK-BR3 cells]
Procedure: (§1) Cells (3×10⁴ cells/well) were incubated in polystyrene 96-well round-bottom plates (Greiner bio-one, cat. no. 650180) with serial dilutions of antibodies (ranging from 0.000458 to 30 μg/mL in 4-fold dilution steps) in 100 μL PBS/0.1% BSA/0.02% azide (staining buffer) at 4° C. for 30 min. Experiments were performed in technical duplicate. After washing twice in staining buffer, cells were incubated in 50 μL secondary antibody at 4° C. for 30 min. As a secondary antibody, R-Phycoerythrin (PE)-conjugated goat-anti-human IgG F(ab′)₂ (1:500 in FACS buffer; Jackson ImmunoResearch Laboratories, Inc., West Grove, PA, cat. no. 109-116-098), was used. Cells were washed twice in staining buffer, re-suspended in 30 μL FACS buffer containing Topro-3 (1:10,000 dilution) and analyzed on an iQue Screener (Intellicyt Corporation, USA). Binding curves were analyzed using non-linear regression (sigmoidal dose-response with variable slope) using GraphPad Prism V7.02 software (GraphPad Software, San Diego, CA, USA).
(§2) Binding was analyzed by flow cytometry as described above.

B7H3 = biological target: T2, B7H3; experiment: flow cytometry, transiently transfected HEK cells, MFI as % of IgG1-B7H3-BRCA84D
T2 construct: also called human B7H3
T2 full-length protein on cells: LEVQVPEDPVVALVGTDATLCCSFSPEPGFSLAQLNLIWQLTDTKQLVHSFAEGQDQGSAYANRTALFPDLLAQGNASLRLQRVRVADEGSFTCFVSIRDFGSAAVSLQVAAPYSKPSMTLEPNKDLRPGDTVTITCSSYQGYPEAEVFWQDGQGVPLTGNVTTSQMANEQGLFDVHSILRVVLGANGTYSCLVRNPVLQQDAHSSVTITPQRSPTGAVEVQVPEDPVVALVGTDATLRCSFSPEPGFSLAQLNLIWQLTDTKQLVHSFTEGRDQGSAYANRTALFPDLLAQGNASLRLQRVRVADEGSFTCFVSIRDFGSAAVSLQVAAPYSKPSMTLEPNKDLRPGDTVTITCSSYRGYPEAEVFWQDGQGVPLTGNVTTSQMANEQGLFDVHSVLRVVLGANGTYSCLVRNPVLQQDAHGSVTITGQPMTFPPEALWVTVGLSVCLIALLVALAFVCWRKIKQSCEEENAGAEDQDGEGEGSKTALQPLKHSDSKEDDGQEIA
Procedure: (§3) Expression constructs were prepared encoding human B7H4, human B7H3 (Uniprot accession no. Q5ZPR3-1; SEQ ID NO: 9), or a chimeric molecule containing the IgV domain of B7H3 and the IgC domain of B7H4 (B7H3-IgV/B7H4-IgC; SEQ ID NO: 11), or a chimeric molecule containing the IgV domain of B7H4 and the IgC domain of B7H3 (B7H4-IgV/B7H3-IgC; SEQ ID NO: 10). HEK cells were transiently transfected to express these constructs.
(§4) Cells (3×10⁴ cell/well) were incubated in polystyrene 96-well round-bottom plates (Greiner bio-one, cat. no. 650101) with serial dilutions of antibodies (range 0.0046 to 10 μg/mL in 3-fold dilution steps) in 50 μL PBS/0.1% BSA/0.02% azide (FACS buffer) at 4° C. for 30 min. After washing twice in FACS buffer, cells were incubated with secondary antibody at 4° C. for 30 min. As a secondary antibody, R-Phycoerythrin (PE)-conjugated goat-anti-human IgG F(ab′)₂ (1:500 in staining buffer; Jackson ImmunoResearch Laboratories, Inc., West Grove, PA, cat. no. 109-116-098) was used. Next, cells were washed twice in FACS buffer, re-suspended in 20 μL FACS buffer and analyzed on an iQue Screener (Intellicyt Corporation, USA).

B7H4-IgV/B7H3-IgC [3] = biological target: T3, B7H4-IgV/B7H3-IgC; experiment: flow cytometry, transiently transfected HEK cells, MFI as % of the control antibody of the panel [continued) III]
T3 construct: also called chimeric molecule with the IgV domain of B7H4 and the IgC domain of B7H3
T3 full-length chimeric protein on cells: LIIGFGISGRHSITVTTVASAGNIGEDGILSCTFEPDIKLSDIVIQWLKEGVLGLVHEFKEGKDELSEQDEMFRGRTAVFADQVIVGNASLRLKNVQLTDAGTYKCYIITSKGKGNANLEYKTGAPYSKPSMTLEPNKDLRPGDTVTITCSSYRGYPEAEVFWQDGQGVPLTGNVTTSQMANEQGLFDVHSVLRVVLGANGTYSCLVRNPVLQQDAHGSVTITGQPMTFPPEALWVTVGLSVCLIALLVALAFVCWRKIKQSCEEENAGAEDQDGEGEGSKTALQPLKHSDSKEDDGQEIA
Procedure: as §3, §4

[4] = biological target: T4, recombinant hIgG1 Fc-tagged cynomolgus monkey B7H4 (Creative BioMart, cat. no. VTCN1-1517R) (cynomolgus monkey, UniProt Q7Z7D3 25-259 (human entry)); experiment: BLI (Octet HTX); Fc-tagged cynomolgus B7H4 coupled to AR2G sensor, bispecific antibody in solution (monovalent B7H4 binding); 1st experiment
T4 construct: Bought protein; also called cynomolgus monkey B7H4 extracellular domain
T4 sequence: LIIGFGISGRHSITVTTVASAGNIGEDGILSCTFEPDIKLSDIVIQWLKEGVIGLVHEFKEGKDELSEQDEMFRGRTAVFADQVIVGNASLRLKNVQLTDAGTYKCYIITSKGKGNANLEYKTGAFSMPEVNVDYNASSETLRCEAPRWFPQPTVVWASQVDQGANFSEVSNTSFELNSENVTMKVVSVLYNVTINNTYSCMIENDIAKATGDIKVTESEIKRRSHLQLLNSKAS
Procedure: (§5) In addition, the affinity of for cynomolgus monkey B7H4 was determined by BLI. […] Amine Reactive 2nd Generation (AR2G) biosensors (FortéBio, cat. no. 18-5092) were activated by reaction with 20 mM EDC (N-(3-Dimethylaminopropyl)-N′-ethylcarbodiimide hydrochloride) (FortéBio, cat. no. 18-1033) and 10 mM s-NHS (N-hydroxysulfosuccinimide sodium salt) (FortéBio, cat. no. 18-1067) for 300 s. The activated sensors were loaded with 10 μg/mL recombinant hIgG1 Fc-tagged cynomolgus monkey B7H4 (Creative BioMart, cat. no. VTCN1-1517R) in 10 mM Sodium Acetate pH 4.0 (FortéBio, cat. no. 18-1068) for 600 s and quenched with 1 M ethanolamine pH 8.5 (FortéBio, cat. no. 18-1071) for 300 s. […] A molecular mass of 150 kDa of the antibodies was used for calculations. For each antibody a reference sensor was used, which was incubated with Sample Diluent instead of antibody.
(§6) Data were acquired using Data Acquisition Software v9.0.0.49d (FortéBio) and analyzed with Data Analysis Software v9.0.0.12 (FortéBio). Data traces were corrected per antibody by subtraction of the reference sensor. The Y-axis was aligned to the last 10 s of the baseline, Interstep Correction alignment to dissociation and Savitzky-Golay filtering were applied. Data traces with a response<0.05 nm were excluded from analysis. The data was fitted with the 1:1 Global Full fit model using a window of interest for the association and dissociation times set at 100 s and 200 s respectively.

[5] = biological target: T1, human B7H4, full length, on cells; experiment: binding to tumor cells, as CD3 bispecific (monovalent) and IgG1 (bivalent)
[6] = biological target: T1, human B7H4, full length, on cells; experiment: flow cytometry on MDA-MB-468 tumor cells [MDA-MB-468 right panel]
Procedure: as §1, §2

B7H4-IgV/B7H3-IgC [7] = biological target: T3, B7H4-IgV/B7H3-IgC; experiment: flow cytometry, HEK cells transiently transfected with B7H4-IgV/B7H3-IgC, PE anti-human IgG F(ab')2 [panel B7H4-IgV/B7H3-IgC]
Procedure: After washing twice in FACS buffer, cells were incubated with secondary antibody at 4° C. for 30 min. […] Next, cells were washed twice in FACS buffer, re-suspended in 20 μL FACS buffer and analyzed on an iQue Screener (Intellicyt Corporation, USA).
Further experiments were conducted to study the B7H4 domain specificity of the B7H4 antibodies in more detail, by analysis of full dose-response curves.

[8] = biological target: T4, recombinant hIgG1 Fc-tagged cynomolgus …; experiment: BLI (Octet HTX); Fc-tagged cynomolgus B7H4 coupled to AR2G sensor, bispecific antibody in solution (monovalent B7H4 binding); 2nd experiment (R^2 0.97, below the 0.98 threshold)
Procedure: as §5
as §6, with “The data was fitted with the 1:1 Global Full fit model using a window of interest for the association and dissociation times set at 100 s and 200 s respectively.” left out

[9] = biological target: T4, recombinant hIgG1 Fc-tagged cynomolgus …; experiment: BLI (Octet HTX); Fc-tagged cynomolgus B7H4 coupled to AR2G sensor, bispecific antibody in solution (monovalent B7H4 binding); 2nd experiment (R^2 0.97, below the 0.98 threshold); R^2 0.97, below the 0.98 quality threshold (footnote b)
Procedure: as §5
as §6, with “The data was fitted with the 1:1 Global Full fit model using a window of interest for the association and dissociation times set at 100 s and 200 s respectively.” left out

B1: bsIgG1-huCD3-FEALxB7H4-C1-N52S-FEAR (bispecific antibody)
heavy 1: not shown
light 1: not shown
heavy 2: QVQLQQWGAGLLKPSETLSLTCAVYGGSFSGYYWSWIRQPPGKGLEWIGEISHSGSTNYNPSLKSRVTISIDTSKNQFSLKLTSVTAADTAVFYCARGLFNWNFDSWGQGTLVTVSSASTKGPSVFPLAPSSKSTSGGTAALGCLVKDYFPEPVTVSWNSGALTSGVHTFPAVLQSSGLYSLSSVVTVPSSSLGTQTYICNVNHKPSNTKVDKRVEPKSCDKTHTCPPCPAPEFEGGPSVFLFPPKPKDTLMISRTPEVTCVVVAVSHEDPEVKFNWYVDGVEVHNAKTKPREEQYNSTYRVVSVLTVLHQDWLNGKEYKCKVSNKALPAPIEKTISKAKGQPREPQVYTLPPSREEMTKNQVSLTCLVKGFYPSDIAVEWESNGQPENNYKTTPPVLDSDGSFFLYSRLTVDKSRWQQGNVFSCSVMHEALHNHYTQKSLSLSPGK
light 2: DIQMTQSPSSLSASVGDRVTITCRASQGIRNDLGWYQQKPGKAPKRLIYGASSLQSGVPSRFSGSGSGTEFTLTISSLQPEDFATYYCLQHNSYPRTFGQGTTVEIKRTVAAPSVFIFPPSDEQLKSGTASVVCLLNNFYPREAKVQWKVDNALQSGNSQESVTEQDSKDSTYSLSSTLTLSKADYEKHKVYACEVTHQGLSSPVTKSFNRGEC
notes: also called bslgG1-huCD3-FEALxB7H4-C1-N52S-FEAR; CD3xB7H4
Question: How did the “IC50 of T cell-mediated cytotoxicity, HCC1954 cells, highest of 4 donors” value [1] turn out when B1 was run?
Answer: 0.008 µg/mL

Question: What about the “IC50 of T cell-mediated cytotoxicity, HCC1954 cells, lowest of 4 donors” value [1] of the same binder?
Answer: 0.001 µg/mL

Question: And the “IC50 of T cell-mediated cytotoxicity, MCF7 cells, highest of 4 donors” value [1]?
Answer: 0.025 µg/mL

Question: What about the “IC50 of T cell-mediated cytotoxicity, MCF7 cells, lowest of 4 donors” value [1] of the same binder?
Answer: 0.012 µg/mL

Question: What about the “IC50 of T cell-mediated cytotoxicity, MDA-MB-468 cells, highest of 4 donors” value [1] of the same binder?
Answer: 0.004 µg/mL

Question: And the “IC50 of T cell-mediated cytotoxicity, MDA-MB-468 cells, lowest of 4 donors” value [1]?
Answer: 0.001 µg/mL

Question: What about the “IC50 of T cell-mediated cytotoxicity, OVCAR3 cells, highest of 4 donors” value [1] of the same binder?
Answer: 0.012 µg/mL

Question: And the “IC50 of T cell-mediated cytotoxicity, OVCAR3 cells, lowest of 4 donors” value [1]?
Answer: 0.003 µg/mL

Question: And the “IC50 of T cell-mediated cytotoxicity, SK-BR3 cells, highest of 4 donors” value [1]?
Answer: 0.016 µg/mL

Question: What about the “IC50 of T cell-mediated cytotoxicity, SK-BR3 cells, lowest of 4 donors” value [1] of the same binder?
Answer: 0.002 µg/mL

Question: What about the “EC50 (read off the curve)” value [2] of the same binder?
Answer: ~1 µg/mL

Question: Does B1 bind (B7H3)?
Answer: no binding (tested: 10 µg/mL)

Question: Does B1 bind (B7H4-IgV/B7H3-IgC [3])?
Answer: no binding (tested: 10 µg/mL)

Question: What about the Kd [4] of the same binder?
Answer: 21 nM

Question: What about the koff [4] of the same binder?
Answer: 0.003 s⁻¹

Question: What about the kon [4] of the same binder?
Answer: 140000 M⁻¹ s⁻¹

B2: antibody B7H4-C1 (antibody, V domains shown)
VH: QVQLQQWGAGLLKPSETLSLTCAVYGGSFSGYYWSWIRQPPGKGLEWIGEINHSGSTNYNPSLKSRVTISIDTSKNQFSLKLTSVTAADTAVFYCARGLFNWNFDSWGQGTLVTVSS
VL: DIQMTQSPSSLSASVGDRVTITCRASQGIRNDLGWYQQKPGKAPKRLIYGASSLQSGVPSRFSGSGSGTEFTLTISSLQPEDFATYYCLQHNSYPRTFGQGTTVEIKR
notes: Parent of B7H4-C1-N52S
Question: Does B2 bind [5]?
Answer: binds

B3: bsIgG1-huCD3-H101G-FEALxB7H4-C5-FEAR (bispecific antibody)
heavy 1: not shown
light 1: not shown
heavy 2: QLQLQESGPGLVKPSETLSLTCTVSGGSIKSGSYYWGWIRQPPGKGLEWIGNIYYSGSTYYNPSLRSRVTISVDTSKNQFSLKLSSVTAADTAVYYCAREGSYPNQFDPWGQGTLVTVSSASTKGPSVFPLAPSSKSTSGGTAALGCLVKDYFPEPVTVSWNSGALTSGVHTFPAVLQSSGLYSLSSVVTVPSSSLGTQTYICNVNHKPSNTKVDKRVEPKSCDKTHTCPPCPAPEFEGGPSVFLFPPKPKDTLMISRTPEVTCVVVAVSHEDPEVKFNWYVDGVEVHNAKTKPREEQYNSTYRVVSVLTVLHQDWLNGKEYKCKVSNKALPAPIEKTISKAKGQPREPQVYTLPPSREEMTKNQVSLTCLVKGFYPSDIAVEWESNGQPENNYKTTPPVLDSDGSFFLYSRLTVDKSRWQQGNVFSCSVMHEALHNHYTQKSLSLSPGK
light 2: not shown
notes: also called bslgG1-huCD3-H101G-FEALxB7H4-C5-FEAR
Question: Which results are given for B3?
Answer: EC50 (read off the curve) [6]: ~0.6 µg/mL; EC50 (read off the curve) (B7H4-IgV/B7H3-IgC [7]): ~1 µg/mL; koff [8]: 0.0025 s⁻¹; kon [8]: 420000 M⁻¹ s⁻¹; Kd [9]: 6 nM
